Results from the supplement of paper PMC10724198.

Experiments:
[1] = test system: Saccharomyces cerevisiae; test: protein stability index of tFT-peptide fusion in wild type (PSI (0-1 scale)); higher = more stable (slower turnover); conditions: genetic background: wild type
[2] = test system: Saccharomyces cerevisiae; test: protein stability index of tFT-peptide fusion in deletion strain of DOA10 (PSI (0-1 scale)); higher = more stable (slower turnover)
Procedure: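 MPS profiling in S. cerevisiae of two library types built from selected 12-aa C-degron peptides (IN1, IN2, LN1, LN3, VN2, R1-R5, W1-W3, Atg1 and Rpa12 C-termini): saturation mutagenesis libraries and C-terminal +1 capping libraries (13 aa). Each peptide is fused to the C-terminus of a sfGFP-mCherry timer, after a GGGS linker. Cells are FACS-sorted into 8 mCherry/sfGFP bins and sequenced. PSI runs from 0 (unstable) to 1 (stable), measured once in wild type and in the das1Δ or doa10Δ background.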
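Wherever protein stability index of tFT-peptide fusion in deletion strain of DOA10 is given: PSI per variant is the weighted mean of its sequencing read distribution over the sorted stability bins, counting only variants with over 10 reads summed across bins.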
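Wherever protein stability index of tFT-peptide fusion in wild type is given: PSI derived as read-weighted mean over the 8 sorting bins, only variants exceeding 10 total reads kept, mCherry placed adjacent to the peptide and sfGFP distal.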

## FITLPMCPLLLR
[1]
  protein stability index: 0.333
[2]
  protein stability index: 0.61

## GLYACSVGCWFR
[1]
  protein stability index: 0.386
[2]
  protein stability index: 0.678

## CLVSLPILLFFI
[1]
  protein stability index: 0.197
[2]
  protein stability index: 0.436

## AIPLPMCPLLLR
[1]
  protein stability index: 0.28
[2]
  protein stability index: 0.653

## RSLRKLLPLYFR
[1]
  protein stability index: 0.474
[2]
  protein stability index: 0.67

## RSLRVLLWLYFR
[1]
  protein stability index: 0.166
[2]
  protein stability index: 0.524

## GLYDCSVGCWFR
[1]
  protein stability index: 0.56
[2]
  protein stability index: 0.716

## AITLPMCPLLLG
[1]
  protein stability index: 0.509
[2]
  protein stability index: 0.544

## CDVSLPILLFFR
[1]
  protein stability index: 0.0512
[2]
  protein stability index: 0.648

## RVTRLDAIYKRI
[1]
  protein stability index: 0.667
[2]
  protein stability index: 0.698

## CLVSLPILLFTR
[1]
  protein stability index: 0.314
[2]
  protein stability index: 0.477

## CLVSLEILLFFR
[1]
  protein stability index: 0.211
[2]
  protein stability index: 0.262

## RVTRLDAIYFNI
[1]
  protein stability index: 0.572
[2]
  protein stability index: 0.703

## GIYMCSVGCWFR
[1]
  protein stability index: 0.256
[2]
  protein stability index: 0.611

## AITLPMCPVLLR
[1]
  protein stability index: 0.322
[2]
  protein stability index: 0.623

## CRVSLPILLFFR
[1]
  protein stability index: 0.0571
[2]
  protein stability index: 0.62

## CLVGLPILLFFR
[1]
  protein stability index: 0.0666
[2]
  protein stability index: 0.589

## KLYMCSVGCWFR
[1]
  protein stability index: 0.349
[2]
  protein stability index: 0.654

## AITLPMCPLLDR
[1]
  protein stability index: 0.655
[2]
  protein stability index: 0.7

## ARTLPMCPLLLR
[1]
  protein stability index: 0.311
[2]
  protein stability index: 0.669

## CLVSLPINLFFR
[1]
  protein stability index: 0.0948
[2]
  protein stability index: 0.682

## RVTRLDAIYFHI
[1]
  protein stability index: 0.491
[2]
  protein stability index: 0.527

## RFLRVLLPLYFR
[1]
  protein stability index: 0.381
[2]
  protein stability index: 0.666

## AITLPMCPLYLR
[1]
  protein stability index: 0.135
[2]
  protein stability index: 0.675

## AITLPMCPDLLR
[1]
  protein stability index: 0.669
[2]
  protein stability index: 0.677

## RVTRLDAIYFWI
[1]
  protein stability index: 0.523
[2]
  protein stability index: 0.561

## AITLPMCGLLLR
[1]
  protein stability index: 0.243
[2]
  protein stability index: 0.63

## AITLPMCPLLLRP
[1]
  protein stability index: 0.281
[2]
  protein stability index: 0.636

## RVTRLDAIYLRI
[1]
  protein stability index: 0.302
[2]
  protein stability index: 0.704

## LSLRVLLPLYFR
[1]
  protein stability index: 0.311
[2]
  protein stability index: 0.616

## GLYMRSVGCWFR
[1]
  protein stability index: 0.252
[2]
  protein stability index: 0.688

## AITLPMCPLLFR
[1]
  protein stability index: 0.27
[2]
  protein stability index: 0.669

## RSVRVLLPLYFR
[1]
  protein stability index: 0.238
[2]
  protein stability index: 0.661

## AITLPMCPLSLR
[1]
  protein stability index: 0.596
[2]
  protein stability index: 0.665

## CLVALPILLFFR
[1]
  protein stability index: 0.0608
[2]
  protein stability index: 0.512

## GLYMCSVGCWCR
[1]
  protein stability index: 0.334
[2]
  protein stability index: 0.45

## RSERVLLPLYFR
[1]
  protein stability index: 0.365
[2]
  protein stability index: 0.674

## RSLRCLLPLYFR
[1]
  protein stability index: 0.408
[2]
  protein stability index: 0.681

## YSLRVLLPLYFR
[1]
  protein stability index: 0.244
[2]
  protein stability index: 0.632

## GLYKCSVGCWFR
[1]
  protein stability index: 0.453
[2]
  protein stability index: 0.671

## CLVSLPILLFFE
[1]
  protein stability index: 0.454
[2]
  protein stability index: 0.57

## GLYMSSVGCWFR
[1]
  protein stability index: 0.299
[2]
  protein stability index: 0.688

## CLKSLPILLFFR
[1]
  protein stability index: 0.083
[2]
  protein stability index: 0.618

## RSLRVLLPLYGR
[1]
  protein stability index: 0.595
[2]
  protein stability index: 0.642

## GLYMYSVGCWFR
[1]
  protein stability index: 0.238
[2]
  protein stability index: 0.605

## AITLPMCMLLLR
[1]
  protein stability index: 0.133
[2]
  protein stability index: 0.651

## AITLPLCPLLLR
[1]
  protein stability index: 0.19
[2]
  protein stability index: 0.647

## AHTLPMCPLLLR
[1]
  protein stability index: 0.346
[2]
  protein stability index: 0.664

## RSLRVLLYLYFR
[1]
  protein stability index: 0.235
[2]
  protein stability index: 0.479

## RVTRLDPIYFRI
[1]
  protein stability index: 0.462
[2]
  protein stability index: 0.707

## RSGRVLLPLYFR
[1]
  protein stability index: 0.372
[2]
  protein stability index: 0.665

## AITLPMPPLLLR
[1]
  protein stability index: 0.257
[2]
  protein stability index: 0.682

## RSLRVLLELYFR
[1]
  protein stability index: 0.557
[2]
  protein stability index: 0.593

## RSLRVRLPLYFR
[1]
  protein stability index: 0.187
[2]
  protein stability index: 0.675

## CLVWLPILLFFR
[1]
  protein stability index: 0.0521
[2]
  protein stability index: 0.359

## EVTRLDAIYFRI
[1]
  protein stability index: 0.435
[2]
  protein stability index: 0.701

## HSLRVLLPLYFR
[1]
  protein stability index: 0.309
[2]
  protein stability index: 0.669

## CLVSLPILLFFH
[1]
  protein stability index: 0.204
[2]
  protein stability index: 0.474

## RVTRLDAIYERI
[1]
  protein stability index: 0.67
[2]
  protein stability index: 0.708

## CLVSLPIQLFFR
[1]
  protein stability index: 0.0792
[2]
  protein stability index: 0.658

## GLYPCSVGCWFR
[1]
  protein stability index: 0.394
[2]
  protein stability index: 0.678

## AITLPMCILLLR
[1]
  protein stability index: 0.091
[2]
  protein stability index: 0.603

## GQYMCSVGCWFR
[1]
  protein stability index: 0.363
[2]
  protein stability index: 0.673

## RVTRLDAIAFRI
[1]
  protein stability index: 0.673
[2]
  protein stability index: 0.708

## RVTELDAIYFRI
[1]
  protein stability index: 0.633
[2]
  protein stability index: 0.64

## GLYMCQVGCWFR
[1]
  protein stability index: 0.308
[2]
  protein stability index: 0.641

## AIILPMCPLLLR
[1]
  protein stability index: 0.277
[2]
  protein stability index: 0.617

## RVTRLDANYFRI
[1]
  protein stability index: 0.689
[2]
  protein stability index: 0.716

## HLVSLPILLFFR
[1]
  protein stability index: 0.108
[2]
  protein stability index: 0.618

## AITLLMCPLLLR
[1]
  protein stability index: 0.37
[2]
  protein stability index: 0.629

## CLVSTPILLFFR
[1]
  protein stability index: 0.132
[2]
  protein stability index: 0.623

## ASLRVLLPLYFR
[1]
  protein stability index: 0.285
[2]
  protein stability index: 0.666

## RSLRVLSPLYFR
[1]
  protein stability index: 0.308
[2]
  protein stability index: 0.691

## NITLPMCPLLLR
[1]
  protein stability index: 0.359
[2]
  protein stability index: 0.664

## RSLPVLLPLYFR
[1]
  protein stability index: 0.186
[2]
  protein stability index: 0.672

## CLVSLPILLEFR
[1]
  protein stability index: 0.518
[2]
  protein stability index: 0.638
